Results taken from PMC2690590 (2009).

Target: DR1: DRA*0101(1–191)/DRB1*0101(1–198) (human)

Binder | IC50
recombinant extracellular part of human invariant chain (positions 73–208) (domain or fragment) QQQGRLDKLTVTSQNLQLENLRMKLPKPPKPVSKMRMATPLLMQALPMGALPQGPMQNATKYGNMTEDHVMHLLQNADPLKVYPPLKGSFPENLRHLKNTMETIDWKVFESWMHHWLLFEMSRHSLEQKPTDAPPK | 40 nM
PKYVKQNTLKLAT [influenza hemagglutinin peptide HA306–318] | 34 nM
C-terminal fragment of the invariant chain (positions 118–208), devoid of CLIP (domain or fragment) LPMGALPQGPMQNATKYGNMTEDHVMHLLQNADPLKVYPPLKGSFPENLRHLKNTMETIDWKVFESWMHHWLLFEMSRHSLEQKPTDAPPK | 1700 nM
LPKPPKPVSKMRMATPLLMQALPM [CLIP peptide fragment of the invariant chain (positions 97–120)] | 40 nM
